PMC5253651, “Human farnesyl pyrophosphate synthase is allosterically inhibited by its own product” (Nature Communications, 2017)

Biological target: the molecule itself
Test: crystal structure; human FPPS (10 mg/ml) crystallised with 1 mM FPP and 2 mM MgCl2, sitting drop, 22 °C; 1.9 Å; one subunit in the asymmetric unit, biological assembly a homodimer

B1: Human farnesyl pyrophosphate synthase (enzyme)
chain: MNGDQNSDVYAQEKQDFVQHFSQIVRVLTEDEMGHPEIGDAIARLKEVLEYNAIGGKYNRGLTVVVAFRELVEPRKQDADSLQRAWTVGWCVELLQAFFLVADDIMDSSLTRRGQICWYQKPGVGLDAINDANLLEACIYRLLKLYCREQPYYLNLIELFLQSSYQTEIGQTLDLLTAPQGNVDLVRFTEKRYKSIVKYKTAFYSFYLPIAAAMYMAGIDGEKEHANAKKILLEMGEFFQIQDDYLDLFGDPSVTGKIGTDIQDNKCSWLVVQCLQRATPEQYQILKENYGQKEAEKVARVKALYEELDLPAVFLQYEEDSYSHIMALIEQYAAPLPPAVFLGLARKIYKRRK
notes: Human farnesyl pyrophosphate synthase (FPPS), UniProt P14324 as printed; Crystallised with the small molecule FPP in the allosteric pocket; One subunit in the asymmetric unit; the homodimer arises by crystallographic symmetry; also called FPPS; human FPPS; source: E. coli BL21 (DE3), purified (Ni-nitrilotriacetic acid, Superdex 200 size-exclusion chromatography)
Q: Does B1 bind?
A: Result: binds
